Square brackets hold non-standard residues; d marks the D form. Ends that are not written are not given here. hArg = N=C(N)NCCCC[C@H](N)C(=O)O; Aib = CC(C)(N)C(=O)O

Experiment [1] deals with T1, rat PTH receptor (rat, UniProt P25961 27-591, limits assumed).
T1 construct: R0 and RG conformations assayed separately by the method of WO 2009/017809 or a similar one; also called rat PTHR1
T1 sequence (looked up): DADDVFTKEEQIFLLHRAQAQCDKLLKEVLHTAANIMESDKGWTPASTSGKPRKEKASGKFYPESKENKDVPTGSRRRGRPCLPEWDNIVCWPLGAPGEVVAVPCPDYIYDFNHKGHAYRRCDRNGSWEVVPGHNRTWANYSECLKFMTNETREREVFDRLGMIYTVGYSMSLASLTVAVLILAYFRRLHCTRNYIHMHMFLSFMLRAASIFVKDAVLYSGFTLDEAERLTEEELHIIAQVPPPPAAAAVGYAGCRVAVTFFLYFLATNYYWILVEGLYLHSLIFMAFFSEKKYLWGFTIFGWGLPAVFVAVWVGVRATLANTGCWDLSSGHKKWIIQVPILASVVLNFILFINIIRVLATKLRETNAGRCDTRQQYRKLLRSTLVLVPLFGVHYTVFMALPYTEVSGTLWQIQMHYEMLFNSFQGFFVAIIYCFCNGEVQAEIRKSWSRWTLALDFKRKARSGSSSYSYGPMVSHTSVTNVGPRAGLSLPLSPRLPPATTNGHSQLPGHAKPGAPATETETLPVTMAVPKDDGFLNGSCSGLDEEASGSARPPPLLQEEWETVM
Nature of the experiment: radioligand displacement, rat PTHR1, R0 conformation. In general terms: Loss of bound radioactivity is the signal in a displacement assay; it reports binding, not function.

Experiment [2] concerns the target T2, human PTH-1 receptor (human, UniProt Q03431 27-593).
T2 construct: whole, on cells; also called human PTHR1; human PTH receptor
T2 sequence (looked up): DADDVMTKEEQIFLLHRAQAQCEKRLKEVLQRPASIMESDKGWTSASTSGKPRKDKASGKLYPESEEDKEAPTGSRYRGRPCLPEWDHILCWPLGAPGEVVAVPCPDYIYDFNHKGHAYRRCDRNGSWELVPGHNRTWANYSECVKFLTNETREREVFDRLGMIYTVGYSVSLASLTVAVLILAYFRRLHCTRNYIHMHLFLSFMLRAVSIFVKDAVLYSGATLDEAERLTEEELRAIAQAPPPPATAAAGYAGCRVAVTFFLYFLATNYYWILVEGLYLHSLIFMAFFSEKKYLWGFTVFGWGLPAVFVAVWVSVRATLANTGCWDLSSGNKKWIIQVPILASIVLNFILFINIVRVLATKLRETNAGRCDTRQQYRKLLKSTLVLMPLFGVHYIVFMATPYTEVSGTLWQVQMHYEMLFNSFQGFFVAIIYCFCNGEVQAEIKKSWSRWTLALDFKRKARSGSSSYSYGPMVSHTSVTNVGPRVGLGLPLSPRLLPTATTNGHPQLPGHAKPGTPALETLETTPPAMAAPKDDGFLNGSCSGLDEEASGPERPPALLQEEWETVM
Nature of the experiment: radioligand competition, human PTHR1 in COS-7 membranes, R0 conformation. On the procedure:
(§1) Here, competition binding assays for the R⁰ and RG PTHR1 conformation were performed in membranes prepared from transfected COS-7 cells, as described by Dean et al., Mol Endocrinol 22:156-66, 2008. Data are means of three experiments, each performed in duplicate. Curves were fit to the data using Graph-Pad Prism 4.0.

Experiment [3] addresses T2, human PTH-1 receptor. Nature of the experiment: radioligand competition, human PTHR1 in COS-7 membranes, RG conformation. On the procedure:
as §1

Experiment [4] concerns the target T1, rat PTH receptor. Nature of the experiment: radioligand displacement, rat PTHR1, RG conformation.

B1: M-PTH(1-34) (peptide)
peptide: AV[Aib]EIQLMHQ[hArg]AKWLNSMRRVEWLRKKLQDVHNF-NH2
modifications: N-terminus assumed
SMILES: CC[C@H](C)[C@H](NC(=O)[C@H](CCC(=O)O)NC(=O)C(C)(C)NC(=O)[C@@H](NC(=O)[C@H](C)N)C(C)C)C(=O)N[C@@H](CCC(N)=O)C(=O)N[C@@H](CC(C)C)C(=O)N[C@@H](CCSC)C(=O)N[C@@H](Cc1c[nH]cn1)C(=O)N[C@@H](CCC(N)=O)C(=O)N[C@@H](CCCCNC(=N)N)C(=O)N[C@@H](C)C(=O)N[C@@H](CCCCN)C(=O)N[C@@H](Cc1c[nH]c2ccccc12)C(=O)N[C@@H](CC(C)C)C(=O)N[C@@H](CC(N)=O)C(=O)N[C@@H](CO)C(=O)N[C@@H](CCSC)C(=O)N[C@@H](CCCNC(=N)N)C(=O)N[C@@H](CCCNC(=N)N)C(=O)N[C@H](C(=O)N[C@@H](CCC(=O)O)C(=O)N[C@@H](Cc1c[nH]c2ccccc12)C(=O)N[C@@H](CC(C)C)C(=O)N[C@@H](CCCNC(=N)N)C(=O)N[C@@H](CCCCN)C(=O)N[C@@H](CCCCN)C(=O)N[C@@H](CC(C)C)C(=O)N[C@@H](CCC(N)=O)C(=O)N[C@@H](CC(=O)O)C(=O)N[C@H](C(=O)N[C@@H](Cc1c[nH]cn1)C(=O)N[C@@H](CC(N)=O)C(=O)N[C@@H](Cc1ccccc1)C(N)=O)C(C)C)C(C)C
notes: M residues: Ala1,12, Aib3, Gln10, homoArg11, Trp14, Arg19; also called M-PTH(1-34).NH2; MGH# 1577
In the case of B1, the IC50 (as a rule, the midpoint of a concentration-inhibition curve) in experiment [1] stood at 1.5 nM; in experiment [2] it was 0.95 nM; in experiment [3], 0.45 nM; in experiment [4], 0.9 nM.

B2: SP-PTH ([Ala1,3,12,Gln10,Arg11,Trp14]PTH(1-14)/PTHrP(15-36)) (peptide)
peptide: AVAEIQLMHQRAKWIQDLRRRFFLHHLIAEIHTAEI-OH
notes: Synthetic hybrid analog of human PTH(1-14) and human PTHrP(15-36); also called Super-potent PTH; Mc-PTH(1-14)/rP(15-36)OH
For B2, the IC50 in experiment [1] came out at 1.4 nM; in experiment [2], 1.4 nM; in experiment [3], 0.48 nM; in experiment [4] it was 0.61 nM.

B3: SP-PTH-AAK ([Ala1,3,12,18,22,Gln10,Arg11,Trp14,Lys26]PTH(1-14)/PTHrP(15-36)) (peptide)
peptide: AVAEIQLMHQRAKWIQDARRRAFLHKLIAEIHTAEI-OH
notes: Synthetic hybrid analog of human PTH(1-14) and human PTHrP(15-36); also called Mc-PTH(1-14)/AAK-rP(15-36)OH; SP-AAK
With B3, the IC50 was 0.21 nM in experiment [1], 0.68 nM in experiment [2], 0.22 nM in experiment [3] and 0.7 nM in experiment [4].

B4: Aib-SP-PTH ([Ala1,12,Aib3,Gln10,Har11,Trp14]PTH(1-14)/PTHrP(15-36)) (peptide)
peptide: AV[Aib]EIQLMHQ[hArg]AKWIQDLRRRFFLHHLIAEIHTAEI-NH2
modifications: N-terminus assumed
SMILES: CC[C@H](C)[C@H](NC(=O)[C@H](CCC(=O)O)NC(=O)[C@H](C)NC(=O)[C@@H](NC(=O)[C@H](Cc1c[nH]cn1)NC(=O)[C@@H](NC(=O)[C@H](CCC(=O)O)NC(=O)[C@H](C)NC(=O)[C@@H](NC(=O)[C@H](CC(C)C)NC(=O)[C@H](Cc1c[nH]cn1)NC(=O)[C@H](Cc1c[nH]cn1)NC(=O)[C@H](CC(C)C)NC(=O)[C@H](Cc1ccccc1)NC(=O)[C@H](Cc1ccccc1)NC(=O)[C@H](CCCNC(=N)N)NC(=O)[C@H](CCCNC(=N)N)NC(=O)[C@H](CCCNC(=N)N)NC(=O)[C@H](CC(C)C)NC(=O)[C@H](CC(=O)O)NC(=O)[C@H](CCC(N)=O)NC(=O)[C@@H](NC(=O)[C@H](Cc1c[nH]c2ccccc12)NC(=O)[C@H](CCCCN)NC(=O)[C@H](C)NC(=O)[C@H](CCCCNC(=N)N)NC(=O)[C@H](CCC(N)=O)NC(=O)[C@H](Cc1c[nH]cn1)NC(=O)[C@H](CCSC)NC(=O)[C@H](CC(C)C)NC(=O)[C@H](CCC(N)=O)NC(=O)[C@@H](NC(=O)[C@H](CCC(=O)O)NC(=O)C(C)(C)NC(=O)[C@@H](NC(=O)[C@H](C)N)C(C)C)[C@@H](C)CC)[C@@H](C)CC)[C@@H](C)CC)[C@@H](C)CC)[C@@H](C)O)C(N)=O
notes: Synthetic hybrid analog of human PTH(1-14) and human PTHrP(15-36); also called Super-potent Aib-PTH; M-PTH(1-14)/rP(15-36)NH2
As to B4, the IC50 in experiment [1] amounted to 0.93 nM; in experiment [2], 1.8 nM; in experiment [3], 0.69 nM.

B5: Aib-SP-PTH-AAK ([Ala1,12,18,22,Aib3,Gln10,Har11,Trp14,Lys26]PTH(1-14)/PTHrP(15-36)) (peptide)
peptide: AV[Aib]EIQLMHQ[hArg]AKWIQDARRRAFLHKLIAEIHTAEI-NH2
modifications: N-terminus assumed
SMILES: CC[C@H](C)[C@H](NC(=O)[C@H](CCC(=O)O)NC(=O)[C@H](C)NC(=O)[C@@H](NC(=O)[C@H](Cc1c[nH]cn1)NC(=O)[C@@H](NC(=O)[C@H](CCC(=O)O)NC(=O)[C@H](C)NC(=O)[C@@H](NC(=O)[C@H](CC(C)C)NC(=O)[C@H](CCCCN)NC(=O)[C@H](Cc1c[nH]cn1)NC(=O)[C@H](CC(C)C)NC(=O)[C@H](Cc1ccccc1)NC(=O)[C@H](C)NC(=O)[C@H](CCCNC(=N)N)NC(=O)[C@H](CCCNC(=N)N)NC(=O)[C@H](CCCNC(=N)N)NC(=O)[C@H](C)NC(=O)[C@H](CC(=O)O)NC(=O)[C@H](CCC(N)=O)NC(=O)[C@@H](NC(=O)[C@H](Cc1c[nH]c2ccccc12)NC(=O)[C@H](CCCCN)NC(=O)[C@H](C)NC(=O)[C@H](CCCCNC(=N)N)NC(=O)[C@H](CCC(N)=O)NC(=O)[C@H](Cc1c[nH]cn1)NC(=O)[C@H](CCSC)NC(=O)[C@H](CC(C)C)NC(=O)[C@H](CCC(N)=O)NC(=O)[C@@H](NC(=O)[C@H](CCC(=O)O)NC(=O)C(C)(C)NC(=O)[C@@H](NC(=O)[C@H](C)N)C(C)C)[C@@H](C)CC)[C@@H](C)CC)[C@@H](C)CC)[C@@H](C)CC)[C@@H](C)O)C(N)=O
notes: Synthetic hybrid analog of human PTH(1-14) and human PTHrP(15-36); also called Super-potent Aib-AAK PTH; M-PTH(1-14)AAK-/rP(15-36)NH2
For B5, the IC50 was 0.94 nM in experiment [2], 0.37 nM in experiment [3] and 0.45 nM in experiment [4].
